Reference: publication doi:10.1101/2024.05.28.596271

Key:
[1] = target: FAM-labeled integrin β3 peptide (human); assay: fluorescence polarisation
[2] = target: FITC-labeled integrin β2 peptide representing both the JM and the NPxY/F regions (human); assay: fluorescence polarisation

Row | Substance | fold increase in affinity over wild-type THD [1] | Kd [2] | Kd [1]
1 | THD(D397K) (from UniProt P26039 1-405) (domain or fragment) | 2 fold |  | 
2 | THD(D397R) (from UniProt P26039 1-405) (domain or fragment) | 2 fold | > 100 µM | 
3 | talin head protein THD405d (residues 1-405, lacking F1-loop) (from UniProt P26039 1-405) (domain or fragment) |  | 31.9 µM | 4.4 µM
